The source of these data is US20220177564A1 (Ablynx, published 2022).

“And” between values parts separate entries of the source, which are not always exact repeats. Equal entries are not always repeated.

For experiment [1], the target named is T1, hTSLP-Fc (human, UniProt Q969D9 29-159).
T1 construct: also called hTSLP-hFc; hTLSP-Fc; not shown: human Fc part and any linker not described
In words: SPR, hTSLP-hFc (same value as Table 10). Background: Surface plasmon resonance follows binding to a sensor surface in real time, without labels.

In experiment [2] the target is T1, hTSLP-Fc. Description: SPR (ProteOn XPR36), periplasmic extract over immobilised Fc fusion.
The target of experiment [3] is T2, cyno TSLP-Fc (cynomolgus monkey, UniProt A0A7N9CAT7 29-159).
T2 construct: also called cyno TSLP-hFc; not shown: human Fc part and any linker not described
The experiment is described as above.

For experiment [4], the target named is T3, human TSLP (human, UniProt Q969D9 29-159).
T3 construct: also called hTSLP; hTSP
In words: AlphaScreen, purified ISVD; hTSLP to hTSLPR.

The target in experiment [5] is T2, cyno TSLP-Fc. Description: SPR, cyno TSLP-hFc (same value as Table 10).
Experiment [6] addresses T3, human TSLP. In words: SPR, hTSLP.
The target of experiment [7] is T1, hTSLP-Fc. Description: SPR (BIAcore T100), Fc fusion captured by anti-huIgG.
In experiment [8] the target is T2, cyno TSLP-Fc. Described as above.
In experiment [9] the target is T3, human TSLP. Description: AlphaScreen, purified ISVD; hTSLP:hTSLPR:hIL7Rα ternary complex. (In general: Bead proximity is the source of the signal in Alpha formats.)
The target of experiment [10] is T4, cyno TSLP (cynomolgus monkey, UniProt A0A7N9CAT7 29-159).
T4 construct: also called cynomolgus monkey TSLP
In words: SPR, cyno TSLP.

In experiment [11] the target is T5, cyno IL-13 (cynomolgus monkey, UniProt Q0PW92 21-132). In words: cell-based or functional assay.
The target of experiment [12] is T6, human IL-13 (human, UniProt P35225 35-146, limits assumed). In words: cell-based or functional assay.
For experiment [13], the target named is T7, rhesus IL-13 (rhesus monkey, UniProt Q864V6 19-132, limits assumed). In words: cell-based or functional assay.
In experiment [14] the target is T5, cyno IL-13. Description: Gyrolab in-solution affinity, 48 h incubation.
For experiment [15], the target named is T3, human TSLP. In words: Gyrolab in-solution affinity, 48 h incubation.
Experiment [16] has as its target T4, cyno TSLP. In words: Gyrolab in-solution affinity, 48 h incubation.
The target of experiment [17] is T6, human IL-13. Description: Gyrolab in-solution affinity, 48 h incubation.
In experiment [18] the target is T8, human IL4 (human, UniProt P05112 25-153).
T8 construct: also called human 1L4
T8 sequence (looked up): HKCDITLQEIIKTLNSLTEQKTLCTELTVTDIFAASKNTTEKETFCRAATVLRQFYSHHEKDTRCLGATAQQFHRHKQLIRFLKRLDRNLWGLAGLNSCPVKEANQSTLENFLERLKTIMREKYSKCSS
Description: SPR (ProteOn XPR36), cytokine immobilised by amine coupling.

Experiment [19] has as its target T9, human IL7 (human, UniProt P13232 26-177).
T9 construct: also called 1L7
T9 sequence (looked up): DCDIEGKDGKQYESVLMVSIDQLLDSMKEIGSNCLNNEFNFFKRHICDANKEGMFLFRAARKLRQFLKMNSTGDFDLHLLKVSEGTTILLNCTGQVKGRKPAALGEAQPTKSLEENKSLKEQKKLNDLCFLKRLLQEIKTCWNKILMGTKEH
Described as above.

Experiment [20] addresses short form of TSLP (UniProt Q969D9-2 1-63, limits assumed). In words: SPR (ProteOn), short form of TSLP immobilised.
Experiment [21] deals with T3, human TSLP. Description: cell-based or functional assay.
The target of experiment [22] is T3, human TSLP. Description: cell-based or functional assay. This is another data set of the same source.
The target of experiment [23] is T4, cyno TSLP. In words: cell-based or functional assay.
The target in experiment [24] is T5, cyno IL-13. In words: cell-based or functional assay. The source holds these as a separate data set.
In experiment [25] the target is T6, human IL-13. In words: cell-based or functional assay. The source holds these as a separate data set.
The target of experiment [26] is T10, mouse serum albumin (mouse, UniProt P07724 25-608).
T10 construct: also called SA (mouse)
Description: Gyrolab in-solution affinity, 2 h incubation.

Experiment [27] concerns the target T11, human serum albumin (human, UniProt P02768 25-609).
T11 construct: also called HSA; SA (human)
Description: Gyrolab in-solution affinity, 2 h incubation.

Experiment [28] addresses T12, cyno serum albumin (cynomolgus monkey).
T12 construct: also called SA (cynomolgus monkey)
In words: Gyrolab in-solution affinity, 2 h incubation.

Experiment [29] concerns the target T5, cyno IL-13. Description: Gyrolab in-solution affinity, 72 h incubation.
Experiment [30] addresses T3, human TSLP. Description: Gyrolab in-solution affinity, 72 h incubation.
The target in experiment [31] is T4, cyno TSLP. In words: Gyrolab in-solution affinity, 72 h incubation.
Experiment [32] concerns the target T6, human IL-13. In words: Gyrolab in-solution affinity, 72 h incubation.
In experiment [33] the target is T7, rhesus IL-13. Description: Gyrolab in-solution affinity, 72 h incubation.
Experiment [34] deals with T13, hIL13-Fc (human, UniProt P35225 25-146).
T13 construct: not shown: Fc part and any linker not described
Description: SPR; * measured on hIL-13-Fc (same values as Table 9).

For experiment [35], the target named is T6, human IL-13. In words: cell-based or functional assay. The source holds these as a separate data set.
Experiment [36] deals with T14, cyno IL13-Fc (cynomolgus monkey, UniProt Q0PW92 11-132).
T14 construct: not shown: Fc part and any linker not described
Description: SPR (BIAcore T100), cyno IL13-Fc immobilised on CM5; heterogeneous ligand fit, major interaction.

Experiment [37] concerns the target T6, human IL-13. Description: AlphaScreen, purified ISVD; hIL-13 to hIL-13Rα1-hFc.
In experiment [38] the target is T13, hIL13-Fc. Description: competition ELISA; hIL13-Fc to coated IL13Rα2. For orientation: In an ELISA, binding on a coated surface is turned into a signal by an enzyme label.
Experiment [39] concerns the target T14, cyno IL13-Fc. In words: SPR (ProteOn XPR36), periplasmic extract over immobilised Fc fusion.
Experiment [40] concerns the target T13, hIL13-Fc. The experiment is described as above.
Experiment [41] deals with T13, hIL13-Fc. Description: SPR (BIAcore T100), hIL13-Fc immobilised on CM5; heterogeneous ligand fit, major interaction.
Experiment [42] deals with T6, human IL-13. Description: AlphaScreen, purified ISVD; hIL-13:hIL-13Rα1:hIL4Rα ternary complex.
Experiment [43] deals with T13, hIL13-Fc. Description: competition ELISA; soluble IL-13Rα2 as positive control against coated IL13Rα2.

B1: F0107529F10 (VHH)
VHH: EVQLVESGGGLVQAGGSLRLSCAASGFTFADYDYDIGWFRQAPGKEREGVSCISNRDGSTYYTDSVKGRFTISSDNAKNTVSLQMNSLKPEDTAVYYCAVEIHCDDYGVENFDFDPWGQGTLVTVSS
notes: Wild-type anti-TSLP ISVD; also called F107529F10; not shown: c-myc, His6 tag of the purified protein
For the molecule B1, the Kd in experiment [1] was 0.035 nM; in [5] it was 1.7 nM; in [7], 0.035 nM; in experiment [8] it was 1.7 nM. The koff in experiment [2] is under 5e-05 s⁻¹; in experiment [3], 0.0018 s⁻¹; in [6], 6.6e-05 s⁻¹; in [7], 0.00042 s⁻¹; in experiment [8] it was 0.0015 s⁻¹; in experiment [10], 0.0018 s⁻¹. The IC50 is 0.013 nM in [4] and 0.18 nM in experiment [9]. Moreover, the kon in experiment [7] is 1.2e+07 M⁻¹ s⁻¹; in experiment [8] it was 870000 M⁻¹ s⁻¹.

B2: F027400161 (other)
chain: DVQLVESGGGVVQPGGSLRLSCAASGRTFSSYRMGWFRQAPGKEREFVAALSGDGYSTYTANSVKGRFTISRDNSKNTVYLQMNSLRPEDTALYYCAAKLQYVSGWSYDYPYWGQGTLVTVSSGGGGSGGGGSGGGGSGGGGSGGGGSGGGGSGGGGSEVQLVESGGGVVQPGGSLRLSCAASGFTFNNYAMKWVRQAPGKGLEWVSSITTGGGSTDYADSVKGRFTISRDNSKNTLYLQMNSLRPEDTALYYCANVPFGYYSEHFSGLSFDYRGQGTLVTVSSGGGGSGGGSEVQLVESGGGVVQPGGSLRLSCAASGSGFGVNILYWYRQAAGIERELIASITSGGITNYVDSVKGRFTISRDNSENTMYLQMNSLRAEDTGLYYCASRNIFDGTTEWGQGTLVTVSSGGGGSGGGSEVQLVESGGGVVQPGGSLRLSCAASGFTFRSFGMSWVRQAPGKGPEWVSSISGSGSDTLYADSVKGRFTISRDNSKNTLYLQMNSLRPEDTALYYCTIGGSLSRSSQGTLVTVSSGGGGSGGGSEVQLVESGGGVVQPGGSLRLSCAASGFTFADYDYDIGWFRQAPGKEREGVSCISNRDGSTYYADSVKGRFTISRDNSKNTVYLQMNSLRPEDTALYYCAVEIHCDDYGVENFDFDPWGQGTLVTVSSA
notes: Pentavalent trispecific ISVD construct (two anti-IL-13 VHHs, two anti-TSLP VHHs, one anti-albumin VHH), Pichia pastoris, purified by Protein A; also called F027100161
As for B2, the “eotaxin release assay (IC50, pM)” value in experiment [11] came out at 1040 pM; in experiment [12], 194 pM; in [13], 713 pM. Besides, the dissociation constant Kd in experiment [14] was 0.0038 nM and 0.0015 nM; in experiment [15], 0.0018 nM and 0.0023 nM; in [16], 0.0559 nM and 0.044 nM; in experiment [17], 0.0042 nM and 0.0063 nM; in experiment [26], 1.8 nM; in experiment [27], 0.119 nM and 0.11 nM and 0.145 nM. The Kd in [28] was 0.198 nM and 0.133 nM and 0.145 nM; in experiment [29] it was 0.0035 nM; in [30] it was 0.001 nM; in experiment [31] it was 0.059 nM; in experiment [32], 0.0047 nM; in experiment [33], 0.0015 nM. Also, the binding result is “no binding (tested: 1 µM)” in [18], “no binding (tested: 1 µM)” in experiment [19] and “no binding (tested: 500 nM)” in experiment [20]. Further, the “mean IC50, TSLP-induced CCL17 production in human DCs” value in [21] is 0.0533 nM. Besides, the “BaF3 proliferation assay (IC50, pM)” value in [22] was determined as 7.8 pM; in [23] it was 24 pM. The entries for the “IC50, SEAP reporter assay (HEK-Blue IL-4/IL-13 cells)” value in experiment [24] and in experiment [25] were 0.0534 nM and 0.0328 nM, respectively.

B3: F0107004B02 (VHH)
VHH: EVQLVESGGGLVQAGGSLRLSCAASGRTFSSYRMGWFRQAPGKEREFVAALSGDGYSTYTANSVNSRFTISRDNAKNTVYLQMNSLKPEDTAIYYCAAKLQYVSGWSYDYPYWGQGTLVTVSS
notes: Wild-type anti-IL-13 ISVD; also called F010704B02; F107004B02; not shown: c-myc, His6 tag of the purified protein
On to B3, for which the Kd was determined as 1100 nM in experiment [34], 1900 nM in experiment [36] and 1100 nM in [41]. The koff in experiment [34] came to 0.024 s⁻¹; in [36] it was 0.034 s⁻¹; in [39], 0.0011 s⁻¹; in experiment [40], 0.0017 s⁻¹; in experiment [41], 0.024 s⁻¹. Besides, the kon in [34] was found to be 22000 M⁻¹ s⁻¹; in [36], 18000 M⁻¹ s⁻¹; in [41] it was 22000 M⁻¹ s⁻¹. Besides, in experiment [35], the “IC50, IL-13-induced TF-1 proliferation assay” value amounted to 27 nM. Also, the IC50 in experiment [37] was 4 nM; in experiment [38], 49 nM; in [42] it was 1.7 nM.

B4: IL13Rα2 (receptor, UniProt Q14627 27-343, looked up)
chain: DTEIKVNPPQDFEIVDPGYLGYLYLQWQPPLSLDHFKECTVEYELKYRNIGSETWKTIITKNLHYKDGFDLNKGIEAKIHTLLPWQCTNGSEVQSSWAETTYWISPQGIPETKVQDMDCVYYNWQYLLCSWKPGIGVLLDTNYNLFYWYEGLDHALQCVDYIKADGQNIGCRFPYLEASDYKDFYICVNGSSENKPIRSSYFTFQLQNIVKPLPPVYLTFTRESSCEIKLKWSIPLGPIPARCFDYEIEIREDDTTLVTATVENETYTLKTTNETRQLCFVVRSKVNIYCSDDGIWSEWSDKQCWEGEDLSKKTLLR
notes: Coated on the plate and also titrated in solution as positive control compound
In the case of B4, in [43], the IC50 is 7.9 nM.

In general, Kd refers to the constant that tells how readily two partners part at equilibrium. Higher therefore signals lower affinity. For orientation: koff means the rate constant with which the complex falls apart. Read a low koff as a long-lived complex. Usually IC50 stands for the concentration that gives 50% inhibition. A higher IC50 goes with a need for much substance. One may read the kon as the rate constant with which the complex forms.
